Results from the supplement of paper PMC10567573.

B1: CPN1 (parent)
chain: RGVRRTASTPTPDDKLFQKLAKVY

Variants of: B1
Assay: protein stability index of a GFP-peptide fusion (GPS, HEK-293T) (PSI 1-6); higher = more stable
Details: c terminus: a fixed tail appended
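Note: lentivirally expressed fusions sorted by FACS into six bins by GFP to DsRed ratio, PSI derived from sequencing read proportions per bin multiplied by bin number.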

Q: Which protein stability index does the source give for RGVRRTASTPTPDDKLFQYLAKVY [K19Y] here?
A: 1.34

Q: Which protein stability index does the source give for RGVRRTASTPTPDDKLFQHLAKVY [K19H] here?
A: 2.12

Q: Which protein stability index does the source give for RGVRRTASTPTPDDKLFQSLAKVY [K19S] here?
A: 1.74

Q: Which protein stability index does the source give for RGVRRTASTPTPDDKLFQGLAKVY [K19G] here?
A: 2.21

Q: Which protein stability index does the source give for RGVRRTASTPTPDDKLFQWLAKVY [K19W] here?
A: 2.21

Q: With RGVRRTASTPTPDDKLFQALAKVY [K19A] as the variant, how does the protein stability index read?
A: 1.62

Q: Which protein stability index does the source give for RGVRRTASTPTPDDKLFQNLAKVY [K19N] here?
A: 2.16

Q: Which protein stability index does the source give for RGVRRTASTPTPDDKLFQDLAKVY [K19D] here?
A: 2.67

Q: Which protein stability index does the source give for RGVRRTASTPTPDDKLFQPLAKVY [K19P] here?
A: 2.93

Q: Which protein stability index does the source give for RGVRRTASTPTPDDKLFQRLAKVY [K19R] here?
A: 2.49

Q: For RGVRRTASTPTPDDKLFQVLAKVY [K19V], which protein stability index is on record?
A: 2.1

Q: Which protein stability index does the source give for RGVRRTASTPTPDDKLFQLLAKVY [K19L] here?
A: 2.36

Q: With RGVRRTASTPTPDDKLFQFLAKVY [K19F] as the variant, how does the protein stability index read?
A: 2.53

Q: With RGVRRTASTPTPDDKLFQELAKVY [K19E] as the variant, how does the protein stability index read?
A: 2.54

Q: Which protein stability index does the source give for RGVRRTASTPTPDDKLFQQLAKVY [K19Q] here?
A: 1.96

Q: With RGVRRTASTPTPDDKLFQTLAKVY [K19T] as the variant, how does the protein stability index read?
A: 1.98

Q: For RGVRRTASTPTPDDKFFQKLAKVY [L16F], which protein stability index is on record?
A: 1.9

Q: For RGVRRTASTPTPDDKAFQKLAKVY [L16A], which protein stability index is on record?
A: 2.65

Q: With RGVRRTASTPTPDDKSFQKLAKVY [L16S] as the variant, how does the protein stability index read?
A: 2.95

Q: With RGVRRTASTPTPDDKPFQKLAKVY [L16P] as the variant, how does the protein stability index read?
A: 3.29

Q: For RGVRRTASTPTPDDKVFQKLAKVY [L16V], which protein stability index is on record?
A: 2.29

Q: For RGVRRTASTPTPDDKRFQKLAKVY [L16R], which protein stability index is on record?
A: 3.34

Q: Which protein stability index does the source give for RGVRRTASTPTPDDKMFQKLAKVY [L16M] here?
A: 2.65

Q: Which protein stability index does the source give for RGVRRTASTPTPDDKTFQKLAKVY [L16T] here?
A: 3.43

Q: Which protein stability index does the source give for RGVRRTASTPTPDDKGFQKLAKVY [L16G] here?
A: 3.29

Q: With RGVRRTASTPTPDDKCFQKLAKVY [L16C] as the variant, how does the protein stability index read?
A: 2.52

Q: With RGVRRTASTPTPDDKYFQKLAKVY [L16Y] as the variant, how does the protein stability index read?
A: 1.92

Q: For RGVRRTASTPTPDDKWFQKLAKVY [L16W], which protein stability index is on record?
A: 1.85

Q: With RGVRRTASTPTPDDKQFQKLAKVY [L16Q] as the variant, how does the protein stability index read?
A: 3.31

Q: With RGVRRTASTPTPDDKNFQKLAKVY [L16N] as the variant, how does the protein stability index read?
A: 3.32

Q: Which protein stability index does the source give for RGVRRTASTPTPDDKKFQKLAKVY [L16K] here?
A: 3.56

Q: Which protein stability index does the source give for RGVRRTASTPTPDDKEFQKLAKVY [L16E] here?
A: 2.68

Q: Which protein stability index does the source give for RGVRRTASTPTPDDKIFQKLAKVY [L16I] here?
A: 2.61

Q: For RGVRRTASTPTPDDKHFQKLAKVY [L16H], which protein stability index is on record?
A: 2.64

Q: Which protein stability index does the source give for RGVRRTASTPTPDDKDFQKLAKVY [L16D] here?
A: 4.21

Q: For RGVRRTASTPTPDDKLFQKLEKVY [A21E], which protein stability index is on record?
A: 3.11

Q: With RGVRRTASTPTPDDKLFQKLSKVY [A21S] as the variant, how does the protein stability index read?
A: 2.15

Q: For RGVRRTASTPTPDDKLFQKLTKVY [A21T], which protein stability index is on record?
A: 1.78

Q: Which protein stability index does the source give for RGVRRTASTPTPDDKLFQKLWKVY [A21W] here?
A: 2.22

Q: For RGVRRTASTPTPDDKLFQKLDKVY [A21D], which protein stability index is on record?
A: 2.78

Q: For RGVRRTASTPTPDDKLFQKLIKVY [A21I], which protein stability index is on record?
A: 1.85

Q: With RGVRRTASTPTPDDKLFQKLFKVY [A21F] as the variant, how does the protein stability index read?
A: 1.64

Q: Which protein stability index does the source give for RGVRRTASTPTPDDKLFQKLHKVY [A21H] here?
A: 2.29

Q: With RGVRRTASTPTPDDKLFQKLQKVY [A21Q] as the variant, how does the protein stability index read?
A: 2.48

Q: With RGVRRTASTPTPDDKLFQKLPKVY [A21P] as the variant, how does the protein stability index read?
A: 2.62

Q: Which protein stability index does the source give for RGVRRTASTPTPDDKLFQKLYKVY [A21Y] here?
A: 2.27

Q: With RGVRRTASTPTPDDKLFQKLNKVY [A21N] as the variant, how does the protein stability index read?
A: 2.66

Q: For RGVRRTASTPTPDDKLFQKLKKVY [A21K], which protein stability index is on record?
A: 1.76

Q: Which protein stability index does the source give for RGVRRTASTPTPDDKLFQKLRKVY [A21R] here?
A: 1.83

Q: For RGVRRTASTPTPDDKLFQKLCKVY [A21C], which protein stability index is on record?
A: 2.22

Q: Which protein stability index does the source give for RGVRRTASTPTPDDKLFQKLVKVY [A21V] here?
A: 1.6

Q: With RGVRRTASTPTPDDKLFQKLGKVY [A21G] as the variant, how does the protein stability index read?
A: 3.23

Q: With RGVRRTASTPTPDDKLFQKLMKVY [A21M] as the variant, how does the protein stability index read?
A: 1.73

Q: With RGVRRTASTPTPDDKLFQKLLKVY [A21L] as the variant, how does the protein stability index read?
A: 1.58

Q: For RGVRRTASTPTPDDKLFDKLAKVY [Q18D], which protein stability index is on record?
A: 2.32

Q: With RGVRRTASTPTPDDKLFGKLAKVY [Q18G] as the variant, how does the protein stability index read?
A: 2.29

Q: With RGVRRTASTPTPDDKLFHKLAKVY [Q18H] as the variant, how does the protein stability index read?
A: 2.02

Q: With RGVRRTASTPTPDDKLFNKLAKVY [Q18N] as the variant, how does the protein stability index read?
A: 1.8

Q: For RGVRRTASTPTPDDKLFWKLAKVY [Q18W], which protein stability index is on record?
A: 1.37

Q: With RGVRRTASTPTPDDKLFIKLAKVY [Q18I] as the variant, how does the protein stability index read?
A: 1.75

Q: With RGVRRTASTPTPDDKLFRKLAKVY [Q18R] as the variant, how does the protein stability index read?
A: 1.77

Q: With RGVRRTASTPTPDDKLFKKLAKVY [Q18K] as the variant, how does the protein stability index read?
A: 1.84

Q: Which protein stability index does the source give for RGVRRTASTPTPDDKLFPKLAKVY [Q18P] here?
A: 2.7

Q: Which protein stability index does the source give for RGVRRTASTPTPDDKLFMKLAKVY [Q18M] here?
A: 1.47

Q: For RGVRRTASTPTPDDKLFFKLAKVY [Q18F], which protein stability index is on record?
A: 1.43

Q: With RGVRRTASTPTPDDKLFVKLAKVY [Q18V] as the variant, how does the protein stability index read?
A: 1.82

Q: For RGVRRTASTPTPDDKLFCKLAKVY [Q18C], which protein stability index is on record?
A: 2.6

Q: For RGVRRTASTPTPDDKLFAKLAKVY [Q18A], which protein stability index is on record?
A: 1.93

Q: Which protein stability index does the source give for RGVRRTASTPTPDDKLFLKLAKVY [Q18L] here?
A: 1.69

Q: Which protein stability index does the source give for RGVRRTASTPTPDDKLFTKLAKVY [Q18T] here?
A: 2.42

Q: For RGVRRTASTPTPDDKLFSKLAKVY [Q18S], which protein stability index is on record?
A: 2.09

Q: For RGVRRTASTPTPDDKLFYKLAKVY [Q18Y], which protein stability index is on record?
A: 1.78

Q: For RGVRRTASTPTPDDKLFEKLAKVY [Q18E], which protein stability index is on record?
A: 2.19

Q: Which protein stability index does the source give for RGVRRTASTPTPDDKLFQKLAKKY [V23K] here?
A: 2.96

Q: With RGVRRTASTPTPDDKLFQKLAKTY [V23T] as the variant, how does the protein stability index read?
A: 2.4

Q: With RGVRRTASTPTPDDKLFQKLAKRY [V23R] as the variant, how does the protein stability index read?
A: 3.84

Q: Which protein stability index does the source give for RGVRRTASTPTPDDKLFQKLAKEY [V23E] here?
A: 3.84

Q: With RGVRRTASTPTPDDKLFQKLAKDY [V23D] as the variant, how does the protein stability index read?
A: 3.02

Q: With RGVRRTASTPTPDDKLFQKLAKQY [V23Q] as the variant, how does the protein stability index read?
A: 3.44

Q: Which protein stability index does the source give for RGVRRTASTPTPDDKLFQKLAKWY [V23W] here?
A: 1.92

Q: Which protein stability index does the source give for RGVRRTASTPTPDDKLFQKLAKHY [V23H] here?
A: 2.78

Q: Which protein stability index does the source give for RGVRRTASTPTPDDKLFQKLAKGY [V23G] here?
A: 3.09

Q: For RGVRRTASTPTPDDKLFQKLAKMY [V23M], which protein stability index is on record?
A: 1.9

Q: For RGVRRTASTPTPDDKLFQKLAKFY [V23F], which protein stability index is on record?
A: 1.64

Q: With RGVRRTASTPTPDDKLFQKLAKPY [V23P] as the variant, how does the protein stability index read?
A: 3.51

Q: For RGVRRTASTPTPDDKLFQKLAKYY [V23Y], which protein stability index is on record?
A: 1.9

Q: Which protein stability index does the source give for RGVRRTASTPTPDDKLFQKLAKLY [V23L] here?
A: 2.18

Q: With RGVRRTASTPTPDDKLFQKLAKAY [V23A] as the variant, how does the protein stability index read?
A: 2.45

Q: With RGVRRTASTPTPDDKLFQKLAKIY [V23I] as the variant, how does the protein stability index read?
A: 2.27

Q: Which protein stability index does the source give for RGVRRTASTPTPDDKLFQKLAKSY [V23S] here?
A: 2.7

Q: With RGVRRTASTPTPDDKLFQKLAKCY [V23C] as the variant, how does the protein stability index read?
A: 2.58

Q: For RGVRRTASTPTPDDKLFQKLAKNY [V23N], which protein stability index is on record?
A: 3.73

Q: With RGVRRTASTPTPDDKLGQKLAKVY [F17G] as the variant, how does the protein stability index read?
A: 3.25

Q: For RGVRRTASTPTPDDKLLQKLAKVY [F17L], which protein stability index is on record?
A: 2.15
